Test results: paper PMC5741731

Experiments:
[1] = molecular target: human mesothelin-Fc fusion protein (human)
[2] = molecular target: human mesothelin-Fc fusion protein (human); test: SPR; Biacore T200; human mesothelin-Fc captured via amine-coupled anti-human IgG (Fc) antibody on a CM5 chip; CA-125-His-Avi and anti-mesothelin Fab injected consecutively and conversely (dual injects, 120 s contact each); PBS with 0.05% Tween 20, dilution with 1 mg/ml BSA; 25 °C

human mesothelin-Fc fusion protein (human), sequence (Q13421 other isoform, or with tags, fused parts or gaps): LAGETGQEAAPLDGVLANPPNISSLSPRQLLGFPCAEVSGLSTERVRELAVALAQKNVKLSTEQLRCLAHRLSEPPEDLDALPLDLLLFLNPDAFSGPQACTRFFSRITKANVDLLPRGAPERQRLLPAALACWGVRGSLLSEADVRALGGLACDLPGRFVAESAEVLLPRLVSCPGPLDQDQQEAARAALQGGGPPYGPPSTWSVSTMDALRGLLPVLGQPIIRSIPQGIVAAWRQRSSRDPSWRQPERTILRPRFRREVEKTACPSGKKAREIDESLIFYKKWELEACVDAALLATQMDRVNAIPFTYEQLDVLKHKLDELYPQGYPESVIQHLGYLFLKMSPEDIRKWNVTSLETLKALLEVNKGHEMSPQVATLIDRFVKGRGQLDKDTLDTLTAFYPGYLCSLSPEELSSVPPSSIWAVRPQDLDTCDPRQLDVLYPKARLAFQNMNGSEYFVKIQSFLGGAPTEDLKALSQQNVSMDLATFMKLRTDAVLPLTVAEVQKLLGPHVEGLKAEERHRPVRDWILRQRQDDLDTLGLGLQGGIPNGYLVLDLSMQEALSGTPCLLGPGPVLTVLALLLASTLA

## CA-125-HisAvi (recombinant CA-125, extracellular portion) (domain or fragment)
[1]
  the same heterotypic cell adhesion after pre-incubation of the NCI-H358-MSLN clones with RG7787 Fab: no NCI-H358 cells recovered for clones 4D8, 4H3 and 1G2; clone 2C5 only partly blocked: 10%
[2]
  occupancy of mesothelin at maximal saturation: 70%
